Data set [1] in a line: Cell lysate reaction of pMT enzymes with psi-ionone, irones quantified by HS-SPME-GCMS. As to conditions: for fold change in cis-α-irone produced: AUC vs non-mutated (=1). The data set is classed as biochemical. An outline of the steps: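 pMT1 site-saturation mutants were expressed in E. coli BL21(DE3) and lysed, and lysates were incubated 2 days at 28 °C with 0.2 mM SAM and 10 mg/L psi-ionone (plus caryophyllene) in 50 mM Tris pH 7, 10 mM MgCl2. Cis-α-irone was measured by HS-SPME-GCMS peak area and given as fold change over non-mutated enzyme.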

Data set [2] is described as follows: Steady-state kinetics of purified pMT enzyme, substrate psi-ionone. Type of data set: biochemical. As to conditions: pMT10 vs pMT7 (Table 3). As to the method:
The steady-state kinetic parameters of pMT7 were determined (Table 3). […] While determining the steady-state kinetics of pMT7, it was noticed that the reaction with purified pMT7 stopped at 6 h before significant conversion had taken place (FIG. 15a). Moreover, while using cell extracts containing pMT7, the reaction reached a plateau after 1-day incubation (FIG. 15b). […] Since pMT7 is an hexamer in solution^10, its oligomeric state before and after the reaction was examined. […] (28 C) overnight as compared to 4° C. […] It was further tested if the enzyme was subject to feedback inhibition, as the cofactor product SAH is a potent inhibitor of methyltransferases^12.
To determine the purified enzyme kinetics and in vivo production, the reaction mixture was extracted with 0.5× or 1× volume of ethyl acetate and the organic phase was diluted appropriately before subjected to GCMS analysis. The samples were analyzed on an Agilent Intuvo 9000 GC system equipped with Agilent DB-WAX Ultra Inert Intuvo GC column (30 m×250 μm×0.25 μm) and Agilent 5977B mass spectrometry with high efficiency source. 1 μl organic phase was injected at the split ratio 10:1 at 250° C. […] The concentration of psi-ionone and irone were calculated by interpolating with a standard curve prepared by synthetic standards.

B1: pMT7: pMT1 with Y200F S182E L273V L180A A202L Y65F (protein)
chain: MPQEARTPQQQVTADEVGDWYDKFGEVYHLTLGESVHCGLWFPPDAPVPQDMELVTMSSQAQDRFTDYLIETLDPKAGQHLLDIGCGTGRTALKAARQRGIAVTGVAVSKEQIAAANRLAAGHGLTERLTFEVADAMRLPYEDESFDCAWAIESLCHMDRAKALGEAWRVLKPGGDLLVAEEVVTEELTEPETALFETLFALNVPPRLGEFFDIVSGAGFHTLSLKDLSANLAMTMNVFALGVYSRRAEFTERFGAEFVDGLLAGLGSAQETVIRKTRFFMATLRKPAV
modifications: Modified from pMT1
notes: pMT1 with Y200F S182E L273V L180A A202L Y65F
For the molecule B1, the cis-α-irone production in data set [1] (higher as compared to pMT1) is on record as 2,450 fold. In addition, the “fold change in cis-α-irone produced” value in data set [1] (pMT6_Y65 mutants) stood at 1.4; in data set [1] (pMT7_T91 mutants), 1.0. The “improvement of total turnover number (TTN)” value in data set [1] (vs pMT1, TTN = cis-α-irone produced / soluble pMT enzyme) is reported as 2,000 fold.

B2: pMT10: pMT1 with Y200F S182E L273V L180A A202L Y65F C156A T91P (protein)
chain: MPQEARTPQQQVTADEVGDWYDKFGEVYHLTLGESVHCGLWFPPDAPVPQDMELVTMSSQAQDRFTDYLIETLDPKAGQHLLDIGCGTGRPALKAARQRGIAVTGVAVSKEQIAAANRLAAGHGLTERLTFEVADAMRLPYEDESFDCAWAIESLAHMDRAKALGEAWRVLKPGGDLLVAEEVVTEELTEPETALFETLFALNVPPRLGEFFDIVSGAGFHTLSLKDLSANLAMTMNVFALGVYSRRAEFTERFGAEFVDGLLAGLGSAQETVIRKTRFFMATLRKPAV
modifications: Modified from pMT1
notes: pMT1 with Y200F S182E L273V L180A A202L Y65F C156A T91P
Consider B2, for which the “improvement of catalytic efficiency” value in data set [2] was 10 fold.

The values are drawn from patent US20240240209A1, “SYNTHESIS OF ENANTIOPURE CIS-A-IRONE FROM A RENEWABLE CARBON SOURCE” (Agency for Science, Technology and Research, priority 2021, published 2024).
